Data reported in the supplement of paper PMC7877785.
± gives the uncertainty stated by the source.

Assay: self-splicing fitness, log relative to wild type (ln ratio); higher = more splicing; Tetrahymena group I intron in knt gene, E. coli kanamycin selection, DiMSum; sequences stand for … in CUCUCU…GGAGGGAAAAGUUAUCAGGCAUGCACCUGGUAGCUAGUCUUUAAACCAAUAGAUUGCAUCGGUUUAAAAGGCAAGACCGUCAAAUUGCGGGAAAGGGGUCAACAGCCGUUCAGUACCAAGUCUCAGGGGAAACUUUGAGAUGGCCUUGCAAAGGGUAUGGUAAUAAGCUGACGGACAUGGUCCUAACCACGCAGCCAAGUCCUAAGUCAACAGAUCUUCUGUUGAUAUGGAUGCAGUUCACAGACUAAAUGUCGGUCGGGGAAGAUGUAUUCUUCUCAUAAGAUAUAGUCGGACCUCUCCUUAAUGGGAGCUAGCGGAUGAAGUGAUGCAACACUGGAGCCGCUGGGAACUAAUUUGUAUGCGAAAGUAUAUUGAUUAGUUUUGGAGUACUCGUGGUCG
Procedure, shortened: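 Fitness was computed with DiMSum as the error-weighted combination of replicate fold changes, kanamycin versus none, each normalised to wild type. The library randomised all eight intron nucleotides of the P1ex region, with the intron placed in the knt kanamycin-resistance gene on pET-22b(+) in E. coli BL21(DE3). Six replicate transformations were grown overnight at 37°C or 30°C on LB agar with or without 25 μg/mL kanamycin, plus 100 μg/mL carbenicillin, 50 μM IPTG and 0.2% rhamnose. Pooled colonies were amplicon-sequenced on an Illumina HiSeq 2500.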

Sequence | self-splicing fitness (ln) (30 °C) | self-splicing fitness (ln) (37 °C)
AACAAGCAAUAUUACGCAAG | -1.88 ± 0.084 | -0.493 ± 0.086
AACAAGCAAUAUUACGCGGC | -3.28 ± 0.26 | -1.71 ± 0.19
AACAAGCAAUAUUACGCGUU | -3.91 ± 0.2 | -3.32 ± 0.18
AACAAGCAAUAUUACGCUUA | -2.08 ± 0.1 | -1.21 ± 0.1
AACAAGCAAUAUUACGGAAG | -3.98 ± 0.18 | -2.74 ± 0.15
AACAAGCAAUAUUACGGACA | -1.6 ± 0.094 | 0.312 ± 0.095
AACAAGCAAUAUUACGGACC | -1.84 ± 0.1 | -0.201 ± 0.11
AACAAGCAAUAUUACGGCGC | -0.737 ± 0.1 | 0.0559 ± 0.12
AACAAGCAAUAUUACGUAAG | -1.93 ± 0.058 | -1.16 ± 0.077
AACAAGCAAUAUUACGUCAC | -3.77 ± 0.22 | -2.29 ± 0.23
AACAAGCAAUAUUACGUGAU | -2.2 ± 0.069 | -1.46 ± 0.08
AACAAGCAAUAUUACGUUAA | -2.55 ± 0.15 | -1.67 ± 0.14
AACAAGCAAUAUUACGUUAG | -4.21 ± 0.22 | -3.26 ± 0.24
AACAAGCAAUAUUACGUUCA | -1.41 ± 0.053 | -0.805 ± 0.063
AACCAGCAAUAUUACGAAGC | -3.37 ± 0.13 | -0.929 ± 0.099
AACCAGCAAUAUUACGAUAU | -0.891 ± 0.057 | -0.0726 ± 0.089
AACCAGCAAUAUUACGAUUG | -3.19 ± 0.15 | -1.48 ± 0.11
AACCAGCAAUAUUACGCACC | 0.0606 ± 0.077 | 0.308 ± 0.1
AACCAGCAAUAUUACGCAGA | -1.76 ± 0.11 | -1.37 ± 0.11
AACCAGCAAUAUUACGCUCC | -0.493 ± 0.094 | -0.0692 ± 0.12
AACCAGCAAUAUUACGGAAC | -2.13 ± 0.091 | -1.04 ± 0.088
AACCAGCAAUAUUACGGACG | 0.131 ± 0.059 | -0.143 ± 0.07
AACCAGCAAUAUUACGGAUA | -0.931 ± 0.069 | -0.176 ± 0.074
AACCAGCAAUAUUACGGAUG | -0.77 ± 0.058 | -0.508 ± 0.072
AACCAGCAAUAUUACGGCGA | -0.304 ± 0.075 | 0.19 ± 0.11

Sequence | self-splicing fitness (ln) (30 °C) | self-splicing fitness (ln) (37 °C)
AACCAGCAAUAUUACGGGCG | -0.173 ± 0.068 | 0.356 ± 0.081
AACCAGCAAUAUUACGGGGA | -2.46 ± 0.097 | -1.09 ± 0.089
AACCAGCAAUAUUACGGGUG | -1.14 ± 0.046 | -0.409 ± 0.064
AACCAGCAAUAUUACGGUCU | -0.594 ± 0.048 | -0.249 ± 0.066
AACCAGCAAUAUUACGUAAG | -1.28 ± 0.059 | -0.259 ± 0.072
AACCAGCAAUAUUACGUAUG | -2 ± 0.076 | -0.882 ± 0.072
AACCAGCAAUAUUACGUCCA | -0.505 ± 0.061 | -0.595 ± 0.068
AACCAGCAAUAUUACGUUUA | -1.01 ± 0.062 | -0.649 ± 0.074
AACCAGCAAUAUUACGUUUC | -4.08 ± 0.17 | -2.92 ± 0.21
AACGAGCAAUAUUACGAAAC | – | -2.37 ± 0.22
AACGAGCAAUAUUACGAAGC | -3.92 ± 0.42 | -1.91 ± 0.37
AACGAGCAAUAUUACGAGUC | – | -2.63 ± 0.44
AACGAGCAAUAUUACGAUCU | -0.758 ± 0.088 | -0.0761 ± 0.1
AACGAGCAAUAUUACGCAGC | -2.29 ± 0.29 | –
AACGAGCAAUAUUACGCAGU | -2.87 ± 0.23 | -2.52 ± 0.29
AACGAGCAAUAUUACGCGCC | -2.77 ± 0.3 | -2.61 ± 0.48
AACGAGCAAUAUUACGCUAG | -3.61 ± 0.25 | -2.92 ± 0.43
AACGAGCAAUAUUACGCUUA | -2.86 ± 0.26 | -1.31 ± 0.2
AACGAGCAAUAUUACGGCGC | -2.14 ± 0.18 | -1.31 ± 0.16
AACGAGCAAUAUUACGGCUC | -2.49 ± 0.44 | –
AACGAGCAAUAUUACGGGGC | -4.03 ± 0.27 | -3.46 ± 0.35
AACGAGCAAUAUUACGGUCA | -2.05 ± 0.21 | -1.12 ± 0.2
AACGAGCAAUAUUACGGUUA | -1.84 ± 0.18 | -0.413 ± 0.15
AACGAGCAAUAUUACGGUUU | -2.07 ± 0.079 | -0.83 ± 0.089
